Starred links: 1 amine or outer side, 2 acyl side, 3 side chain; linkers in the order of their positions; H or OH if unused. Non-standard residues stand in square brackets, D forms with d. Groups on a side chain read outwards from the residue. No end group written: not given here. *: point of attachment. C20 diacid = O=C(O)CCCCCCCCCCCCCCCCCCC(=O)*; γGlu = O=C(O)[C@H](CCC(=O)[*:2])N[*:1]; AEEA = NCCOCCOCC(=O)O; Aib = CC(C)(N)C(=O)O
Molecular target: glucagon-like peptide-1 (GLP-1) receptor
Experiment: cell-based or functional assay

Row | Binder | Relative biological activity (cAMP chemiluminescence, RLU, CHO-K1 cells stably expressing GLP-1R; relative to OXM3) [%]
1 | H[Aib]QGTFTSDYSKYLDEKKAK([PEG5CH2CO-γGlu-C20 diacid])EFVEWLLEGGPSSGAPPPS-NH2 [Compound 2] | 260
2 | H[Aib]QGTFTSDYSKYLDEKKAKEFVEWLLEGGPSSGAPPPS-NH2 (not fully specified (residue 20)) [Compound 3] | 158
3 | H[Aib]QGTFTSDYSKYLDEKKAK([AEEA-AEEA-γGlu-C20 diacid])EFVEWLLEGGPSSGAPPPS-NH2 [Compound 1] | 188
4 | H[Aib]QGTFTSDYSKYLDEKKAK([Gly-Gly-Glu-Gly-Glu-Gly-γGlu-C20 diacid])EFVEWLLEGGPSSGAPPPS-NH2 [Compound 4] | 116

Molecular target: glucagon (Gcg) receptor
Experiment: cell-based or functional assay

Row | Binder | Biological activity (%) (cAMP chemiluminescence, RLU, CHO-K1 cells stably expressing GcgR; relative to OXM3)
5 | H[Aib]QGTFTSDYSKYLDEKKAK([PEG5CH2CO-γGlu-C20 diacid])EFVEWLLEGGPSSGAPPPS-NH2 [Compound 2] | 86.9
6 | H[Aib]QGTFTSDYSKYLDEKKAKEFVEWLLEGGPSSGAPPPS-NH2 (not fully specified (residue 20)) [Compound 3] | 94.2
7 | H[Aib]QGTFTSDYSKYLDEKKAK([AEEA-AEEA-γGlu-C20 diacid])EFVEWLLEGGPSSGAPPPS-NH2 [Compound 1] | 90.5
8 | H[Aib]QGTFTSDYSKYLDEKKAK([Gly-Gly-Glu-Gly-Glu-Gly-γGlu-C20 diacid])EFVEWLLEGGPSSGAPPPS-NH2 [Compound 4] | 49.6

Source: patent publication US20260055154A1 (CHENGDU AODA BIOTECHNOLOGY, published 2026)
